The record followed here is US20140328762A1, “Fluorogenic Peptide Probes and Assays” (priority 2011, published 2014).

In experiment [1] the target is T1, full length human XRCC4 protein (recombinant, E. coli) (human), Q13426. Description: absorbance spectra, 1 µM beacon, 40 µM protein; beacon only 0.40 (FIG. 7).
The target of experiment [2] is truncated XRCC4 protein that does not have DNA ligase IV binding site (recombinant, E. coli) (human), Q13426. Described as above.
Experiment [3] deals with T1, full length human XRCC4 protein …. As to the kind of experiment: fluorescence of 2 µM beacon with increasing concentration of XRCC4 (FIG. 8).
Experiment [4] addresses T2, E3 peptide.
T2 chain: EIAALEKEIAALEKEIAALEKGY
Description: CD spectra analysis, curve fitting (data not shown).

In experiment [5] the target is unlabeled GCN4 244 (yeast). As to the kind of experiment: fluorescence at 580 nm, 100 nM beacon, 10 µM partner (FIG. 14A, column D).
In experiment [6] the target is T2, E3 peptide. Description: Kd of the beacon (fluorescence) compared with Kd of unlabeled K3-b1b3 (CD), both for E3.
The target of experiment [7] is T2, E3 peptide. As to the kind of experiment: fluorescence titration of 10 nM beacon with E3 peptide, curve fitting.
Experiment [8] addresses T2, E3 peptide. As to the kind of experiment: fluorescence at 580 nm, 100 nM beacon, 10 µM partner (FIG. 14A, column E).
Experiment [9] addresses T2, E3 peptide. Description: fluorescence titration of 1 µM beacon with E3 peptide.
Experiment [10] concerns the target FosLZ (MBP-FosLZ, fusion protein of MBP and the cFos leucine zipper) [MBP: P0AEX9]. Description: fluorescence at 580 nm, 100 nM beacon, 10 µM partner (FIG. 14A, column C).
Experiment [11] addresses T2, E3 peptide. As to the kind of experiment: fluorescence titration of 1 µM beacon with E3 peptide, curve fitting.
Experiment [12] deals with unlabeled JunLZ-Lb1b4 [MBP: P0AEX9]. As to the kind of experiment: fluorescence at 580 nm, 100 nM beacon, 10 µM partner (FIG. 14A, column B).

T1 sequence (Q13426 whole entry, the tested form may be a part): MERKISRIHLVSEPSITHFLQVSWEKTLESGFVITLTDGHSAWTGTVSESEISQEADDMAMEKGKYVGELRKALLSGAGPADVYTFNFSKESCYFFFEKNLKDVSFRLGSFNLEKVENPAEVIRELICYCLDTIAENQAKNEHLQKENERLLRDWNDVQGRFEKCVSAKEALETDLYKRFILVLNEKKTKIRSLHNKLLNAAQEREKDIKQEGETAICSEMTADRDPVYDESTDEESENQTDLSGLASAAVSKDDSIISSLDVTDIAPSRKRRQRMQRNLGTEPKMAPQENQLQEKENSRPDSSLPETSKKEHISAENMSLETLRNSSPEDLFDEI
truncated XRCC4 protein that does not have DNA ligase IV binding site (recombinant, E. coli) (human), Q13426, sequence (Q13426 2-150 limits assumed): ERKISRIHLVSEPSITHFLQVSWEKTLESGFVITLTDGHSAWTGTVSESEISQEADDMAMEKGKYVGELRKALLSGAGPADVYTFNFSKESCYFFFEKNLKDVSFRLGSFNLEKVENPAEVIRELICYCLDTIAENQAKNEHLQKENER

B1: LigIV-C1 peptide beacon (peptide)
peptide: CREYDSYGDSYFIDTDLNQLKEVFSGIKCG
modifications: not checked
For the molecule B1, the A550/A520 ratio in [1] was 0.46; in experiment [2], 0.38. Moreover, the fluorescence enhancement in [3] is 9.5 fold.

B2: K3-b1b3 peptide (unlabeled) (peptide)
peptide: KICALKAKIAALKAKICALKAGY
modifications: not checked
A word on the Kd: it is the free concentration of one partner at which half of the binding sites on the other are occupied at equilibrium, for simple one-to-one binding. A lower Kd goes with higher affinity. In the experiment with E3 peptide [4], B2 displayed a dissociation constant Kd of 45 nM.

B3: K3-b1b3 beacon (peptide)
peptide: KICALKAKIAALKAKICALKAGY
modifications: not checked
Turning to B3, the fluorescence enhancement over beacon only in experiment [5] stood at 1.2 fold; in the experiment with E3 peptide [8], 7 fold; in experiment [10], 1.6 fold; in experiment [12], 1.5 fold. In the experiment with E3 peptide [6], this molecule showed a fold decrease of binding affinity against unlabeled K3-b1b3 of 17 fold. The Kd turned out to be 738 nM with E3 peptide [7] and 766 nM in the experiment with E3 peptide [11]. Besides, the maximum fluorescence enhancement with E3 peptide [9] turned out to be 12 fold.
